± gives the standard error.
B1: library; numbered along this chain (parent)
chain: MATDAALRRLLRLHRTEIAVAVDSAFPLLHALADHDVVPEDKFQETLHLKEKEGCPQAFHALLSWLLTQDSTAILDFWRVLFKDYNLERYGRLQPILDSFPKDVDLSQPRKGRKPPAVPKALVPPPRLPTKRKASEEARAAAPAALTPRGTASPGSQLKAKPPKKPESSAEQQRLPLGNGIQTMSASVQRAVAMSSGDVPGARGAVEGILIQQVFESGGSKKCIQVGGEFYTPSKFEDSGSGKNKARSSSGPKPLVRAKGAQGAAPGGGEARLGQQGSVPAPLALPSDPQLHQKNEDECAVCRDGGELICCDGCPRAFHLACLSPPLREIPSGTWRCSSCLQATVQEVQPRAEEPRPQEPPVETPLPPGLRSAGEEVRGPPGEPLAGMDTTLVYKHLPAPPSAAPLPGLDSSALHPLLCVGPEGQQNLAPGARCGVCGDGTDVLRCTHCAAAFHWRCHFPAGTSRPGTGLRCRSCSGDVTPAPVEGVLAPSPARLAPGPAKDDTASHEPALHRDDLESLLSEHTFDGILQWAIQSMARPAAPFPS

Variants of: B1
Test: AIRE transcriptional activation functional score (insulin promoter-GFP; nonsense median 0, synonymous median 1) (normalised score); higher = higher AIRE activity (more reporter activation)
Details: with insulin promoter-GFP reporter in HEK293
Summary of the method: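 Three regions of AIRE were covered by codon-optimized NNN-codon libraries, which Bxb1 recombinase integrated into Flp-In T-REx HEK293 landing-pad cells that carry an insulin core promoter-GFP reporter. Integrants (mCherry+, BFP−) were sorted at day 7 and expanded 7 days, and then the top 10% GFP population and the unselected integrant population were tile-sequenced. The functional score is the enrichment of each variant in select versus non-select cells, with wild type subtracted. Variants required 10 counts per million in non-select, and values were rescaled to a nonsense median of 0 and a synonymous median of 1, then averaged over biological replicates.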

AIRE transcriptional activation functional score: each site, then its substitutions
H454: M -0.148 ± 0.12; C 0.499 ± 0.32; I -0.0282 ± 0.35; L -0.161 ± 0.21; D 0.289 ± 0.075; P 0.129 ± 0.22; A -0.16 ± 0.2; V 0.0829 ± 0.3; E 0.0475 ± 0.31; K 0.0788 ± 0.13; G 0.0883 ± 0.26; S -0.00319 ± 0.2; Y 0.205 ± 0.11; Q 0.0498 ± 0.081; W 0.31 ± 0.15; F 0.117 ± 0.17; N -0.0603 ± 0.43; T 0.0122 ± 0.18; R -0.0692 ± 0.18
S464: N 0.563 ± 0.36; C 1.18 ± 0.15; I 1.17 ± 0.076; G 1.27 ± 0.2; D 0.7 ± 0.34; E 1.32 ± 0.084; L 1.06 ± 0.28; V 0.722 ± 0.23; T 0.783 ± 0.11; H 1.17 ± 0.17; F 0.807 ± 0.17; A 0.955 ± 0.39; R 0.955 ± 0.15; K 1.18 ± 0.19; Y 1.23 ± 0.052; W -0.451 ± 0.18; P 1.21 ± 0.22; M -0.078 ± 0.07
R465: L 1.01 ± 0.4; A 0.476 ± 0.11; T -0.654 ± 0.16; Y 1.39 ± 0.062; M 0.403 ± 0.26; I 0.773 ± 0.47; Q 0.443 ± 0.2; C 0.66 ± 0.18; W 1.18 ± 0.033; P 0.829 ± 0.13; S 1.04 ± 0.19; F 1.15 ± 0.032; H 0.546 ± 0.17; D 0.53 ± 0.072; V 0.453 ± 0.28; G 0.791 ± 0.25; N -1.1 ± 0.54
W455: F 1.3 ± 0.1; N 1.34 ± 0.048; C 1.09 ± 0.14; S 0.675 ± 0.2; K 0.572 ± 0.078; T 0.727 ± 0.17; P 1.3 ± 0.12; D 0.9 ± 0.14; L 1.03 ± 0.18; G 0.965 ± 0.27; H 0.823 ± 0.085; A 1.1 ± 0.27; M 0.774 ± 0.17; E 1.17 ± 0.072; I 0.29 ± 0.38; R 0.879 ± 0.084; Q 1.09 ± 0.043; V 1.17 ± 0.15; Y 0.988 ± 0.11
P466: N 0.444 ± 0.26; V 1.06 ± 0.25; G 1.23 ± 0.09; Y 1.21 ± 0.21; T 1.12 ± 0.2; W 1.42 ± 0.038; H 1.46 ± 0.26; E 0.232 ± 0.26; A 0.83 ± 0.3; C 1.89 ± 0.097; D 0.553 ± 0.043; I 1.21 ± 0.15; S 1.08 ± 0.45; M 0.678 ± 0.14; R 0.843 ± 0.16; Q 1.02 ± 0.13; F 0.774 ± 0.31; L 1.1 ± 0.16; K 0.864 ± 0.1
L470: R 0.997 ± 0.19; M 0.671 ± 0.069; E 0.628 ± 0.14; Y 0.549 ± 0.28; I 0.814 ± 0.23; S 0.622 ± 0.39; H 0.541 ± 0.12; P 0.863 ± 0.21; V 0.842 ± 0.23; F 0.971 ± 0.13; K 0.988 ± 0.22; W 1.38 ± 0.048; C 0.85 ± 0.11; A 1.02 ± 0.089; N 1.06 ± 0.046; T 0.558 ± 0.33; Q 1.11 ± 0.13; D 0.572 ± 0.11; G 0.741 ± 0.084
F453: E -0.452 ± 0.21; Q -0.136 ± 0.063; W 1.24 ± 0.025; T 0.101 ± 0.19; Y 0.32 ± 0.23; G 0.315 ± 0.17; K -0.248 ± 0.043; I 0.235 ± 0.3; L 0.17 ± 0.11; H 0.147 ± 0.12; R 0.106 ± 0.18; N 0.22 ± 0.092; P 0.207 ± 0.28; M 0.268 ± 0.046; S 0.166 ± 0.19; V 0.154 ± 0.15
R456: C 1.3 ± 0.088; K 0.0856 ± 0.29; P 1.1 ± 0.16; W -0.304 ± 0.33; A 1.16 ± 0.58; V -0.245 ± 0.13; F -0.0642 ± 0.14; T 1.32 ± 0.049; N 0.016 ± 0.075; L 1.04 ± 0.22; D 0.851 ± 0.091; I 1.1 ± 0.72; G 1.27 ± 0.27; Q 1.13 ± 0.12; E 1.24 ± 0.15; H 1.2 ± 0.076; S 0.726 ± 0.18; Y 1.51 ± 0.33
T468: W 1.29 ± 0.042; R 0.696 ± 0.3; F 1.02 ± 0.15; D 1.18 ± 0.066; G 1.08 ± 0.33; S 0.945 ± 0.19; E 0.46 ± 0.12; I 1.16 ± 0.17; N 1.08 ± 0.15; M 1.12 ± 0.053; V 0.997 ± 0.24; K 0.654 ± 0.15; C 1.14 ± 0.24; L 1.18 ± 0.18; Q 1.22 ± 0.19; H 0.996 ± 0.11; P 0.984 ± 0.27; A 1.03 ± 0.21; Y 1.25 ± 0.2
H458: M 0.387 ± 0.26; L 0.474 ± 0.18; V 0.655 ± 0.29; Y 0.864 ± 0.076; K 0.374 ± 0.17; F 0.227 ± 0.083; S 0.164 ± 0.44; G 0.842 ± 0.14; P 0.0561 ± 0.15; E 0.661 ± 0.096; T 1.16 ± 0.05; C 1.02 ± 0.049; D 1.4 ± 0.42; A 0.981 ± 0.067; R 0.586 ± 0.18; N 0.71 ± 0.04; Q 0.165 ± 0.27; I -0.227 ± 0.19
G469: D 0.77 ± 0.46; R 0.913 ± 0.23; P 0.911 ± 0.2; Q 0.807 ± 0.11; S 1.15 ± 0.27; V 1.14 ± 0.17; L 0.726 ± 0.3; N 1 ± 0.089; M 1.18 ± 0.044; A 0.409 ± 0.37; I 0.951 ± 0.33; C 1.56 ± 0.064; H 1.19 ± 0.29; W 1.08 ± 0.024; E 0.672 ± 0.2; F 1.42 ± 0.095; T 0.687 ± 0.22; K 0.564 ± 0.23
R471: H 1.03 ± 0.1; C 0.215 ± 0.1; G 0.676 ± 0.33; E 0.786 ± 0.84; D 0.476 ± 0.075; A 0.351 ± 0.28; F 1.09 ± 0.21
A461: M 1.27 ± 0.037; N 1.38 ± 0.038; K 1.18 ± 0.052; S 1.22 ± 0.23; D 0.676 ± 0.16; P 1.19 ± 0.2; G 1.29 ± 0.17; F 1.21 ± 0.17; C 0.883 ± 0.1; Q 0.964 ± 0.089; I 0.816 ± 0.25; V 1.17 ± 0.24; Y 1.16 ± 0.12; E 0.952 ± 0.25; H 1.23 ± 0.27; T 0.39 ± 0.7; R 0.878 ± 0.14; W 1.01 ± 0.044; L 1.28 ± 0.14
G462: M -0.0181 ± 0.26; V 1.03 ± 0.18; D 0.731 ± 0.1; W 0.899 ± 0.042; A 0.924 ± 0.07; E 0.465 ± 0.043; I 0.802 ± 0.27; T 0.372 ± 0.6; P 0.607 ± 0.22; L 0.83 ± 0.49; R 1.01 ± 0.11; H 0.925 ± 0.089; Q 1.03 ± 0.042; Y 1.24 ± 0.089; F 1.26 ± 0.15; N 1.34 ± 0.14; S 0.982 ± 0.23; C 0.984 ± 0.24; K -0.837 ± 0.47
P460: I 1.01 ± 0.32; D 0.0955 ± 0.17; L 0.827 ± 0.23; Q 0.787 ± 0.069; N 1.07 ± 0.14; K 0.952 ± 0.08; C -0.358 ± 0.13; F 0.995 ± 0.098; H 1.05 ± 0.09; R 0.824 ± 0.35; A 1.14 ± 0.2; G 0.909 ± 0.31; M 1.17 ± 0.068; Y 0.38 ± 0.15; V 0.608 ± 0.31; T 0.871 ± 0.4; E 1.16 ± 0.098; S 0.714 ± 0.33
G467: D 0.675 ± 0.16; M 0.866 ± 0.058; L 1.46 ± 0.33; R 1.01 ± 0.36; V 1.06 ± 0.32; W 1.12 ± 0.12; E 1.16 ± 0.064; S 1.06 ± 0.13; A 0.947 ± 0.23; F 1.29 ± 0.12; C 0.822 ± 0.074; I 0.79 ± 0.5; Y 0.488 ± 0.17; K 0.889 ± 0.075; H 1.42 ± 0.22; P 1.04 ± 0.11; T 0.0754 ± 0.27; N 0.68 ± 0.09
T463: S 1.01 ± 0.25; V 1.49 ± 0.074; R 0.998 ± 0.24; Q 0.155 ± 0.73; M 1.51 ± 0.09; H 0.813 ± 0.078; D 1.54 ± 0.082; Y 0.384 ± 1; C 1.42 ± 0.16; I 0.876 ± 0.1; K 0.983 ± 0.24; G 1.01 ± 0.066; P 1.14 ± 0.17; F 0.0316 ± 0.15; N 0.736 ± 0.57; L 1.06 ± 0.14; W 1.05 ± 0.021; A 0.614 ± 0.19
C457: L -0.0524 ± 0.16; I -0.23 ± 0.29; R -0.0861 ± 0.31; Y 0.105 ± 0.083; P 0.211 ± 0.21; D 0.0222 ± 0.03; S -0.11 ± 0.2; A 0.0339 ± 0.14; V 0.0733 ± 0.26; G 0.0376 ± 0.09; F 0.264 ± 0.22; Q 0.613 ± 0.35; W 0.0502 ± 0.067; M -0.234 ± 0.073; H 0.798 ± 0.2; E 0.0401 ± 0.23; T -0.0599 ± 0.15
F459: K 0.78 ± 0.18; C 0.343 ± 0.067; R 0.444 ± 0.11; H 1 ± 0.043; G 0.834 ± 0.26; V 0.585 ± 0.15; I 0.371 ± 0.23; A 0.0803 ± 0.28; E 0.803 ± 0.1; D 0.929 ± 0.076; Y 1.3 ± 0.17; S 0.591 ± 0.26; T 0.589 ± 0.29; Q 1.14 ± 0.034; W 0.395 ± 0.083; L 0.464 ± 0.23; P 0.572 ± 0.056; N 1.27 ± 0.12

— the supplement of paper PMC12667976
